Fold preference for binding to spheres over tubes (NuPODs in excess), percent of NuPODs in the supernatant (with the CA spheres) and percent of NuPODs bound to CA spheres and CA tubes data for 2 substances are collected here from PMC10121901.

The target in experiment [1] is CA-N21C A22C (CA spheres) (HIV-1). The experiment is described as follows: negative-stain EM of NuPODs mixed with CA assemblies.
The target is the same in experiment [2]. The experiment is described as follows: co-sedimentation.
Experiment [3] deals with CA-A14C E45C (disulfide-crosslinked CA tubes; also assembled into cones with IP6) (HIV-1). The experiment is described as follows: negative-stain EM of NuPODs mixed with CA assemblies.

In experiment [1], “MBP-Nup153^(CTD, aa 896–1475) (from UniProt P49790 896-1475) (domain or fragment)” gave a fold preference for binding to spheres over tubes (NuPODs in excess) of 60 fold. For the same substance, the percent of NuPODs in the supernatant (with the CA spheres) in experiment [2] turned out to be 95%.
For “Nup358^(RBD4-CycH, aa 2911–3225) (from UniProt P49792 2911-3224) (domain or fragment)”, the percent of NuPODs bound to CA spheres and CA tubes at the same time in experiment [3] and in experiment [1] was 20 to 50% throughout.
